Changes are numbered by the printed parent chain.
B1: Antibody E (antibody, human IgG1, kappa, L234A L235A)
heavy: not shown
light: DIVMTQSPLSLPVTPGEPASISCKSSQSLLYSNGYNYLDWYLQRPGQSPQLLIYLGSNRASGVPDRFSGSGSGTDFTLKISRVEAEDVGVFYCMQALQTPLTFGGGTKVEIKRTVAAPSVFIFPPSDEQLKSGTASVVCLLNNFYPREAKVQWKVDNALQSGNSQESVTEQDSKDSTYSLSSTLTLSKADYEKHKVYACEVTHQGLSSPVTKSFNRGEC
B2: Antibody E22 (antibody, human IgG1, kappa, L234A L235A, V domains shown)
VH: QVQLQESGPGLVKPSETLSLTCTVSGGSIRDYYWSWIRQPPGKGLEWIGFIYYNGRTFYQSSLKSRVTISLDTSKNQFSLKMTSVTAADTAVYYCARVRAYSGIGLDGTDVWGQGTTVTVSS
VL: DIVMTQSPLSLPVTPGEPASISCRSSQSLLYSTGYTYLDWYLQRPGQSPQLLIYGGSSRASGVPDRFSGSGSGTDFTLKISRVEAEDVGVFYCGQALQTPLTFGQGTKVEIKR
B3: Antibody D (antibody, human IgG1, kappa, L234A L235A, V domains shown)
VH: EVQLVESGGGLVQPGGSLRLSCAASGFTFSSFDMHWVRQPTGKGLEWVSTIGIAGDTYFPGSVKGRFTISRENAKNSLYLQMNSLRAGDTAVYYCARGGNWDDALDIWGQGTMVTVSS
VL: DIQMTQSPSSLSASVGDRVTITCRASQDINNYLAWFQQKPGKAPKSLIYTASSLQSGVPSKFSGSGSGTDFTLTISSLQPEDFATYYCQQYNTYPYTFGQGTKLEIKR
B4: Antibody A (antibody, human IgG1, kappa, L234A L235A)
heavy: not shown
light: DIQMTQSPSSLSASVGDRVTITCRASQDINNYLAWFQQKPGKAPKSLIYTASSLHSGVPSKFSGSGSGTDFTLTISSLQPEDFATYYCQQYVSYPYTFGQGTKLEIKRTVAAPSVFIFPPSDEQLKSGTASVVCLLNNFYPREAKVQWKVDNALQSGNSQESVTEQDSKDSTYSLSSTLTLSKADYEKHKVYACEVTHQGLSSPVTKSFNRGEC
B5: Antibody A10 (antibody, human IgG1, kappa, L234A L235A)
heavy: not shown
light: B4 light
B6: Antibody C (antibody, human IgG1, kappa, L234A L235A, V domains shown)
VH: B3 VH with F32Y, P40A, T50V, F59Y, A87V, N100S, L105F
VL: B3 VL with V15I, R18K, N92V, T93S
B7: Antibody B (antibody, human IgG1, kappa, L234A L235A, V domains shown)
VH: QVQLVQSGAEVKKPGASVKVSCKASGYTFTGNYMHWVRQAPGQGLEWMGWINPNSGGTNYAQKFQGRVTMTRDTSISTAYMELSRLRSDDTAVYYCVSGSGWYENYYYYGMDVWGQGTTVTVSS
VL: DIQMTQSPSSVSASVGDRVTITCRASQGISSWLAWYQQKPGKAPKLLIYAESSLQSGVPSRFSGSGSGTDFTLTISSLQPEDFATYYCQQANSFPLTFGGGTKVEIKR
B8: Anti-SIRPα antibody KWAR23 (antibody, V domains shown)
VH: EVQLQQSGAELVKPGASVKLSCTASGFNIKDYYIHWVQQRTEQGLEWIGRIDPEDGETKYAPKFQDKATITADTSSNTAYLHLSSLTSEDTAVYYCARWGAYWGQGTLVTVSS
VL: QIVLTQSPAIMSASPGEKVTLTCSASSSVSSSYLYWYQQKPGSSPKLWIYSTSNLASGVPARFSGSGSGTSYSLTISSMEAEDAASYFCHQWSSYPRTFGAGTKLELK

Target: ED-tagged human SIRPα V2 receptor on Jurkat signaling reporter cells (human, UniProt P78324 31-504)
Test: cell-based or functional assay

Row | Blockade of Cellular CD47-Mediated SIRPα Signaling; IC50 (* Inhibition plateaus at <100%) [pM] | Blockade of Cellular CD47-Mediated SIRPα Signaling; IC50 [pM] | Binder
1 | 40 |  | B1
2 | 70 |  | B2
3 |  | 40 | B3
4 |  | 40 | B4
5 |  | 40 | B5
6 |  | 30 | B6

Target: ED-tagged human SIRPα V1 receptor on Jurkat signaling reporter cells (human, UniProt P78324 31-504)
Test: cell-based or functional assay

Row | Blockade of Cellular CD47-Mediated SIRPα Signaling; IC50 [pM] | Binder
7 | 40 | B1
8 | 70 | B2
9 | 40 | B3
10 | 760 | B7
11 | 40 | B4
12 | 40 | B5
13 | 40 | B6

Target: T1, full-length human SIRPβ1 D→H on Expi-CHO cells (human, UniProt O00241 30-398)
T1 construct: the entry already carries the change (PDDV to PDHV)
Test: flow cytometry, Expi-CHO cells expressing full-length human SIRPβ1 D→H
Protocol: (§1) These cells are blocked with donkey IgG and incubated on ice with increasing concentrations of antibodies for 60 minutes, washed and stained with AF647-conjugated donkey F(ab′)₂ anti-human IgG antibodies. Stained cells are washed, fixed, and analyzed by flow cytometry. Median fluorescent intensity is determined and used as a measure of antibody binding.

Row | binding result | Binder
14 | no binding (tested: about 67 nM) | B1
15 | no binding (tested: about 67 nM) | B2
16 | no binding (tested: about 67 nM) | B3
17 | no binding (tested: about 67 nM) | B4
18 | no binding (tested: about 67 nM) | B5
19 | no binding (tested: about 67 nM) | B6

Target: T2, full-length human SIRPαV2 D→E on Expi-CHO cells (human, UniProt P78324 31-504)
T2 construct: the entry already carries the change (SPDT to SPET)
Test: flow cytometry, Expi-CHO cells
Protocol: as §1, with “Expi-CHO parental cells are transduced with lentiviruses containing either full-length wild-type human SIRPαV2 allele (CAA71403.1) or full-length human SIRPαV2 with amino acid point mutations (Table 58) and sorted to achieve matching expression levels. These” for “These”

Row | EC50 [pM] | Binder
20 | 300 | B1
21 | 400 | B2
22 | 200 | B8
23 | 600 | B3
24 | 3700 | B7
25 | 200 | B6

Target: T3, full-length human SIRPαV2 (CAA71403.1) on cells (human, UniProt P78324 31-504)
T3 construct: one molecule for CHO-K1 and Expi-CHO transfectants (CAA71403.1) and for endogenous V2 on THP-1 cells and on CD14+ monocytes of V2/V2 donors; also called CHO-hSIRPαV2; αV2 WT
Test: flow cytometry, Expi-CHO cells
Protocol: as §1, with “Expi-CHO parental cells are transduced with lentiviruses containing either full-length wild-type human SIRPαV2 allele (CAA71403.1) or full-length human SIRPαV2 with amino acid point mutations (Table 58) and sorted to achieve matching expression levels. These” for “These”

Row | EC50 [pM] | Binder
26 | 300 | B1
27 | 400 | B2
28 | 200 | B8
29 | 200 | B3
30 | 3600 | B7
31 | 200 | B6

Target: T4, full-length human SIRPαV2 E→N on Expi-CHO cells (human, UniProt P78324 31-504)
T4 construct: the entry already carries the change (TKRE to TKRN)
Test: flow cytometry, Expi-CHO cells
Protocol: as §1, with “Expi-CHO parental cells are transduced with lentiviruses containing either full-length wild-type human SIRPαV2 allele (CAA71403.1) or full-length human SIRPαV2 with amino acid point mutations (Table 58) and sorted to achieve matching expression levels. These” for “These”

Row | EC50 [pM] | Binder
32 | 300 | B1
33 | 400 | B2
34 | 200 | B8
35 | 200 | B3
36 | 4100 | B7
37 | 200 | B6

Target: T3, full-length human SIRPαV2 (CAA71403.1) …
Test: flow cytometry, CD14+ monocytes V2V2
Protocol: (§2) Antibody binding to primary human cells expressing SIRPα is evaluated by flow cytometry. Human peripheral blood mononuclear cells (PBMCs) from donors genotyped as homozygous for the SIRPα V1 allele, V2 allele, or heterozygous for both alleles are blocked with donkey IgG and incubated on ice with increasing concentrations of antibody for 60 minutes, washed and stained with AF647-conjugated donkey F(ab′)₂ anti-human IgG secondary reagent. […] Cells are washed, fixed, and analyzed by flow cytometry. Median fluorescent intensity of the CD14+ population was determined and used as a measure of antibody binding.

Row | EC50 [pM] | Binder
38 | 700 | B1
39 | 400 | B2
40 | 100 | B8
41 | 200 | B3
42 | 21800 | B7
43 | 300 | B6

Target: T5, full-length human SIRPγ N→D on Expi-CHO cells (human, UniProt Q9P1W8 29-387)
T5 construct: the entry already carries the change (PENV to PEDV)
Test: flow cytometry, Expi-CHO cells
Protocol: as §1, with “Expi-CHO parental cells are transduced with lentiviruses containing either full-length wild-type human SIRPγ ([…]) or full-length human SIRPγ with amino acid point mutations (Table 64) and sorted to achieve matching expression levels. These” for “These”

Row | EC50 [pM] | Binder
44 | 300 | B8
45 | 300 | B3
46 | 4800 | B7
47 | 400 | B4
48 | 500 | B5

Target: T6, full-length human SIRPβL H→D on Expi-CHO cells (human, UniProt Q5TFQ8 30-398)
T6 construct: the entry already carries the change (PDHV to PDDV); also called βL WT H→D
Test: flow cytometry, Expi-CHO cells
Protocol: as §1, with “Expi-CHO parental cells are transduced with lentiviruses containing either full-length wild-type human SIRPβL (Q5TFQ8) or full-length human SIRPβL with a single amino acid point mutation (Table 62) and sorted to achieve matching expression levels. These” for “These”
A single amino acid substitution (H→D) introduced within the loop region maintained, strengthened, or facilitated antibody binding to these cells (FIG. 34B, Table 63).

Row | EC50 [pM] | Binder
49 | 500 | B1
50 | 700 | B2
51 | 500 | B8
52 | 200 | B3
53 | 500 | B4
54 | 600 | B5
55 | 300 | B6

Target: T7, full-length human SIRPαV1 (NP_542970.1) on cells (human, UniProt P78324 31-504)
T7 construct: one molecule for CHO-K1 and Expi-CHO transfectants (NP_542970.1) and for endogenous V1 on U-937 cells and on CD14+ monocytes of V1/V1 donors; also called CHO-hSIRPαV1; αV1 WT
Test: flow cytometry, competition with CD47 tetramer, monocytes V1V1
Protocol: Cells are washed, fixed, and analyzed by flow cytometry. Median fluorescent intensity of CD14+gated population is determined and used as a measure of CD47 binding.

Row | IC50 [pM] | Binder
56 | 90 | B1
57 | 250 | B2
58 | 70 | B8
59 | 30 | B3
60 | 2550 | B7
61 | 40 | B6

Target: T7, full-length human SIRPαV1 (NP_542970.1) …
Test: flow cytometry, Expi-CHO cells
Protocol: as §1, with “Expi-CHO parental cells are transduced with lentiviruses containing either full-length wild-type human SIRPαV1 allele (NP_542970.1) or full-length human SIRPαV1 with amino acid point mutations (Table 56) and sorted to achieve matching expression levels. These” for “These”

Row | EC50 [pM] | Binder
62 | 500 | B1
63 | 800 | B2
64 | 300 | B8
65 | 300 | B3
66 | 3800 | B7
67 | 300 | B6

Target: T8, full-length human SIRPαV1 N→E on Expi-CHO cells (human, UniProt P78324 31-504)
T8 construct: the entry already carries the change (TKRN to TKRE)
Test: flow cytometry, Expi-CHO cells
Protocol: as §1, with “Expi-CHO parental cells are transduced with lentiviruses containing either full-length wild-type human SIRPαV1 allele (NP_542970.1) or full-length human SIRPαV1 with amino acid point mutations (Table 56) and sorted to achieve matching expression levels. These” for “These”

Row | EC50 [pM] | Binder
68 | 500 | B1
69 | 900 | B2
70 | 500 | B8
71 | 300 | B3
72 | 4500 | B7
73 | 300 | B6

Target: T9, full-length human SIRPαV1 D→E on Expi-CHO cells (human, UniProt P78324 31-504)
T9 construct: the entry already carries the change (PDDV to PEDV)
Test: flow cytometry, Expi-CHO cells
Protocol: as §1, with “Expi-CHO parental cells are transduced with lentiviruses containing either full-length wild-type human SIRPαV1 allele (NP_542970.1) or full-length human SIRPαV1 with amino acid point mutations (Table 56) and sorted to achieve matching expression levels. These” for “These”

Row | EC50 [pM] | Binder
74 | 400 | B1
75 | 700 | B2
76 | 200 | B8
77 | 200 | B3
78 | 3700 | B7
79 | 200 | B6

Target: T7, full-length human SIRPαV1 (NP_542970.1) …
Test: flow cytometry, CD14+ monocytes V1V1
Protocol: as §2

Row | EC50 [pM] | Binder
80 | 400 | B1
81 | 800 | B2
82 | 200 | B8
83 | 300 | B3
84 | 26600 | B7
85 | 600 | B6
